How the values were obtained:
[1] = target: T1, Zip2(499-704);Spo16 (Saccharomyces cerevisiae;Saccharomyces …, UniProt P53061;P17122 499-704;1-198, |); assay: EMSA
T1 sequence 1: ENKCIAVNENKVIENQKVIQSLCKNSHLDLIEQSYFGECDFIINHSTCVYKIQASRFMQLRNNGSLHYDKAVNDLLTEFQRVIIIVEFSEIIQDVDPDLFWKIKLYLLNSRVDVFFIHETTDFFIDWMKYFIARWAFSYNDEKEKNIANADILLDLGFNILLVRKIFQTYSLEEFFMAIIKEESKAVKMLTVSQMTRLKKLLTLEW
T1 sequence 2: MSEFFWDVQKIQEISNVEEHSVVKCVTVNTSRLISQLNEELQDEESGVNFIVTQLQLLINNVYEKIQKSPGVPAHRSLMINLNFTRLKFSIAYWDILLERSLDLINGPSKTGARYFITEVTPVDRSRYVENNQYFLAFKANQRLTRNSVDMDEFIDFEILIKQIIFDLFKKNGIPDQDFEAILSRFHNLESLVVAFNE

[2] = target: T1, Zip2(499-704);Spo16; assay: ITC
[3] = target: T1, Zip2(499-704);Spo16; assay: EMSA; remark: listed apart in the source

B1: 40-bp dsDNA (dsDNA)
DNA 1: CCTTTCGAAGACTCATCACGGAGAGCAGACATCATCTGGC
DNA 2: GCCAGATGATGTCTGCTCTCCGTGATGAGTCTTCGAAAGG
B1 showed a Kd [1] of 14 µM.

B2: 3'-overhang DNA (mixed)
DNA 1: B1 DNA 1
DNA 2: CGTGATGAGTCTTCGAAAGG
Binder B2 has a Kd [1] of 17 µM.

B3: Holliday Junction (HJ) (structured_DNA)
DNA 1: B1 DNA 1
DNA 2: ATATATGATTCTAATAAGATCGTGATGAGTCTTCGAAAGG
DNA 3: GCCAGATGATGTCTGCTCTCGTCGTAATGTAAGTGTATGC
DNA 4: GCATACACTTACATTACGACATCTTATTAGAATCATATAT
With B3 the Kd [2] was ~1 µM and the Kd [3] was 5 µM.

B4: 5'-overhang DNA (mixed)
DNA 1: B1 DNA 1
DNA 2: GCCAGATGATGTCTGCTCTC
Binder B4 has a Kd [1] of 9 µM.
